Reference: patent US20030148958A1 (PROCTER AND GAMBLE, published 2003)
Ends that are not written are not given here.

Tests used:
[1] = biological target: corticotropin releasing factor 1 receptor; assay: cell-based or functional assay
[2] = biological target: T1, corticotropin releasing factor 2 receptor; assay: cell-based or functional assay
T1 sequence (Q13324 whole entry, species assumed, looked up): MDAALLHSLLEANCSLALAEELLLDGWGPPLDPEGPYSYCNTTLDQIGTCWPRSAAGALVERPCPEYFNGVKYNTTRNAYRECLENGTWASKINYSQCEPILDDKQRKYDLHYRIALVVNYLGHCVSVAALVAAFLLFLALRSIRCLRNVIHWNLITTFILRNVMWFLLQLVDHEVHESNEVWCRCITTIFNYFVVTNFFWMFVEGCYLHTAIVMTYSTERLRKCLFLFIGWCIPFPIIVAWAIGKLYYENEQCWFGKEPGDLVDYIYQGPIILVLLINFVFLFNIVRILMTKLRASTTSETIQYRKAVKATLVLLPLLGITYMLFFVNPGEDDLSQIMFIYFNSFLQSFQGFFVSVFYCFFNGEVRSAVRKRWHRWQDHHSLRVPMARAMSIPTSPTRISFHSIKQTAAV

Binder | CRF1R EC50 [1] | CRF2R EC50 [2] | CRF1R Emax [1] | CRF2R Emax [2]
IVLSLDVPIGLLQILLEQTKARAAREQATTNARILARV-NH2 [SEQ ID NO 129] | > 100 nM | 3.83 nM |  | 
IVLSLDVPIGLLQILLEQAARAAREQATTNARILARV-NH2 [SEQ ID NO 135] | > 100 nM | > 100 nM | 6% | 76%
IVLSLDVPIGLLQILLEQARQEAAREQATTNARILARV-NH2 [SEQ ID NO 123] | > 1000 nM | 3.49 nM | 9.6% | 93.8%
IVLSLDVPIGLLQILLEQERARAAREQATTNARILARV-NH2 [SEQ ID NO 119] | > 100 nM | 3.57 nM | 3% | 95%
IVLSLDVPIGLLQILLEQRAAREQATTNARILARV-NH2 [SEQ ID NO 136] | > 100 nM | 23.4 nM | 8% | 68%
IVLSLDVPIGLLQILLEQARADAAREQATTNARILARV-NH2 [SEQ ID NO 130] | > 100 nM | 8.57 nM | 9% | 92%
IVLSLDVPIGLLQILLEQAKARAAREQATTNARILARV-NH2 [SEQ ID NO 127] | > 100 nM | 7.79 nM |  | 
IVLSLDVPIGLLQILLEQTRARAAREQATTNARILARV-NH2 [SEQ ID NO 128] | > 100 nM | 2.85 nM | 8% | 98%
IVLSLDVPIGLLQILLEQERQEAAREQATTNARILARV-NH2 [SEQ ID NO 118] | > 100 nM | 14.6 nM | 5% | 100%
IVLSLDVPIGLLQILLEQRRAAREQATTNARILARV-NH2 [SEQ ID NO 133] | > 100 nM | 12.2 nM | 4% | 88%
IVLSLEVPIGLLQILLEQARARAAREQATTNARILARV-NH2 [SEQ ID NO 120] | 100 nM | 69.9 nM | 7% | 100%
IVLSLDVPIGLLQILLEQEKQRAAREQATTNARILARV-NH2 [SEQ ID NO 115] | > 100 nM | 13.6 nM | 7% | 98%
ZGPPISIDLPFQLLRKMIEIEKQEKEKQQATNNRLLLATV (C-terminal amide) [SEQ ID NO 12] | 928 nM | 9.72 nM | 73% | 91%
ZGPPISIDLPFQLLRKMIEIEKQEKEKQQATTNRLLLDTI (C-terminal amide) [SEQ ID NO 13] | 97.7 nM | 3.88 nM | 69% | 79%
IVLSLDVPIGLLQILLEQTKANAAREQATTVARILARV-NH2 [SEQ ID NO 116] | 100 nM | 100 nM | 4.8% | 26.4%
IVLSLDVPIGLLQILLEQTRADAAREQATTNARILARV-NH2 [SEQ ID NO 126] | > 100 nM | 13 nM | 7% | 91%
IVLSLDVPIGLLQILLEQARAEAAREQATTNARILARV-NH2 [SEQ ID NO 122] | 1000 nM | 3.31 nM | 10.7% | 97%
IVLSLDVPIGLLQILLEQARQRAAREQATTNARILARV-NH2 [SEQ ID NO 114] | > 100 nM | 3.42 nM | 6% | 100%
IVLSLDVPIGLLQILLEQAKADAAREQATTNARILARV-NH2 [SEQ ID NO 131] | > 100 nM | 5.25 nM | 8% | 91%
IVLSLDVPIGLLQILLEQEKEKKRKETNARILARV-NH2 [SEQ ID NO 132] | > 100 nM | 7.53 nM | 8% | 88%
IVLSLDVPIGLLQILLEQTKARAAREQATTNARILARV-NH2 [SEQ ID NO 117] | 100 nM | 9.41 nM |  | 
IVLSLDVPIGLLQILLEQAAAAREQATTNARILARV-NH2 [SEQ ID NO 134] | > 100 nM | > 100 nM | 7% | 19%
IVLSLDVPIGLLQILLEQAKQEAAREQATTNARILARV-NH2 [SEQ ID NO 124] | > 100 nM | 3.49 nM | 6% | 94%
IVLSLDVPIGLLQILLEQEKQEAAREQATTNARILARV-NH2 [SEQ ID NO 125] | > 100 nM | 4.47 nM | 9% | 99%
